Laboratory results: patent publication US20230039157A1

T1: TF219
T1 chain: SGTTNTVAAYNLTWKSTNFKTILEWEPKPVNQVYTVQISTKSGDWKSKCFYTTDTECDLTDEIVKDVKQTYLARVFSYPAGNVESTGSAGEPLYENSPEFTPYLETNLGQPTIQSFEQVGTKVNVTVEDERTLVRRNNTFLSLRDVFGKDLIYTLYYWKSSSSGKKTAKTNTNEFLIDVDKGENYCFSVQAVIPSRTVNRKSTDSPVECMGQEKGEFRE


How the values were obtained:
[1] = target: IL-2Rβ and common γ chain on 32Dβ cells; test: cell-based or functional assay
[2] = target: IL-2Rα, IL-2Rβ and common γ chain on CTLL-2 cells; test: cell-based or functional assay
TF219 = target: T1, TF219
[3] = target: mouse (m)21t15 multi-chain chimeric polypeptide
[4] = target: 21t15-TGFRs multi-chain chimeric polypeptide
[5] = target: 21t15-7s multi-chain chimeric polypeptide
[6] = target: 18t15-12s multi-chain chimeric polypeptide

| EC50 of 32Dβ cell proliferation (WST1, absorbance at 450 nM) [1] | EC50 of CTLL-2 cell proliferation (WST1, absorbance at 450 nM) [2] | Molecule | FX activation measured by FXa activity (chromogenic substrate S-2765) (TF219) | FX activation measured by FXa activity (chromogenic substrate S-2765) [3] | FX activation measured by FXa activity (chromogenic substrate S-2765) [4] | FX activation measured by FXa activity (chromogenic substrate S-2765) [5] | FX activation measured by FXa activity (chromogenic substrate S-2765) [6] |
| --- | --- | --- | --- | --- | --- | --- | --- |
| 0.0016 nM |  | recombinant IL-15 (from UniProt P40933 49-162) (ligand) |  |  |  |  |  |
| 0.14 nM | 0.548 nM | recombinant IL-2 (from UniProt P60568 21-153) (ligand) |  |  |  |  |  |
|  |  | Factor VIIa (protein) ANAFLEELRPGSLERECKEEQCSFEEAREIFKDAERTKLFWISYSDGDQCASSPCQNGGSCKDQLQSYICFCLPAFEGRNCETHKDDQLICVNENGGCEQYCSDHTGTKRSCRCHEGYSLLADGVSCTPTVEYPCGKIPILEKRNASKPQGRIVGGKVCPKGECPWQVLLLVNGAQLCGGTLINTIWVVSAAHCFDKIKNWRNLIAVLGEHDLSEHDGDEQSRRVAQVIIPSTYVPGTTNHDIALLRLHQPVVLTDHVVPLCLPERTFSERTLAFVRFSLVSGWGQLLDRGATALELMVLNVPRLMTQDCLQQSRKVGDSPNITEYMFCAGYSDGSKDSCKGDSGGPHATHYRGTWYLTGIVSWGQGCATVGHFGVYTRVSQYIEWLQKLMRSEPRPGVLLRAPFP | TF219 and TF219-containing multi-chain chimeric polypeptides had very low FX activation activity | TF219 and TF219-containing multi-chain chimeric polypeptides had very low FX activation activity | TF219 and TF219-containing multi-chain chimeric polypeptides had very low FX activation activity | TF219 and TF219-containing multi-chain chimeric polypeptides had very low FX activation activity | TF219 and TF219-containing multi-chain chimeric polypeptides had very low FX activation activity |
